The supplement of paper PMC10126150
± gives the standard deviation of the averaged measurements.

System: ATP
Experiment: switch fluorescence ratio, 500 uM ATP over buffer (Cy3 cluster intensity, sum of 5 cycles each) (fold (ratio)); higher = stronger signal-on switching upon ATP binding; sequences stand for … in TCGTCGGCAGCGTCAGATGTGTATAAGAGACAGTTTTTTTTTTTTTTTTTTTTTTTTT…TC
Settings: aptamer strand: ATP DNA aptamer (quencher-CACCTGGGGGAGTATTGCGGAGGAAGG + anchor), 100 nM annealed; ATP concentration: 500 uM
Summary of the method: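 Per cluster, summed Cy3 intensity from the target cycles was divided by that from the buffer cycles to give the fluorescence ratio, then averaged per switch-domain sequence. Clusters outside 100-1000 RFU were excluded. The Cy3-labelled switching-strand clusters, on a modified Illumina MiSeq flow-cell, were annealed to 100 nM quencher-labelled ATP aptamer and imaged in selection buffer, then after 15 min with 500 uM ATP at 22 °C, for five cycles with NaOH stripping and re-annealing between them.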
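Further: ATP exposure 15 min at 22 °C before imaging.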

Sequence	switch fluorescence ratio
GATGCCGTAG	0.9997 ± 0.0036
GATGCGACCA	1.04 ± 0.065
GATGCGGGGG	1.02 ± 0.039
GATGCGGGTG	1.07 ± 0.016
GATGCGTGGC	0.998 ± 0.027
GATGCTAGAT	1.01 ± 0.026
GATGGAAAAA	1.04 ± 0.012
GATGGACAGC	1.04 ± 0.041
GATGGAGGGG	0.9965 ± 0.0039
GATGGATCGA	0.977 ± 0.039
GATGGATCGG	1.01 ± 0.017
GATGGATGGA	1.05 ± 0.026
GATGGCAAGG	1.04 ± 0.043
GATGGCCACG	0.9881 ± 0.0047
GATGGCCAGC	1.01 ± 0.041
GATGGCGGGG	0.981 ± 0.03
GATGGCGGGT	1.02 ± 0.07
GATGGCGTAT	0.98 ± 0.031
GATGGGAAGT	1.01 ± 0.024
GATGGGACAG	1.01 ± 0.0019
GATGGGAGGG	0.99 ± 0.027
GATGGGCTAA	1.04 ± 0.022
GATGGGCTTT	0.983 ± 0.024
GATGGGGCAC	1.01 ± 0.013
GATGGGGCGG	1.01 ± 0.048

Sequence	switch fluorescence ratio
GATGGGGTAA	0.997 ± 0.008
GATGGGTTTC	0.987 ± 0.012
GATGGTAACT	0.984 ± 0.017
GATGGTATTT	0.9794 ± 0.0062
GATGGTGTGG	0.997 ± 0.015
GATGGTTCGC	0.976 ± 0.015
GATGTAGGAT	0.978 ± 0.014
GATGTAGGGA	1.02 ± 0.029
GATGTATATG	0.992 ± 0.018
GATGTATGTT	0.978 ± 0.037
GATGTCAGGT	1.03 ± 0.044
GATGTCCCAG	1 ± 0.017
GATGTCGTTT	1.02 ± 0.049
GATGTCTGTT	0.955 ± 0.021
GATGTGCAAA	1.01 ± 0.022
GATGTGCCAG	0.969 ± 0.017
GATGTGCGAG	1.01 ± 0.017
GATGTGGGGC	0.996 ± 0.029
GATGTGTAGA	0.999 ± 0.018
GATGTGTGTT	0.9735 ± 0.0089
GATGTTAGGT	0.996 ± 0.023
GATGTTCGTG	0.994 ± 0.014
GATGTTGCGT	1.018 ± 0.004
GATGTTGGAA	0.997 ± 0.034
GATGTTTGAG	0.991 ± 0.017

Sequence	switch fluorescence ratio
GATGTTTGGC	1.05 ± 0.013
GATGTTTGGG	0.987 ± 0.019
GATGTTTGGT	0.99 ± 0.021
GATGTTTTGA	1 ± 0.018
GATTAAAACT	1.07 ± 0.025
GATTAAAATT	0.951 ± 0.064
GATTAAGGGT	1.04 ± 0.03
GATTAATAAG	1.16 ± 0.26
GATTAATCTG	0.962 ± 0.015
GATTAATGAG	1.01 ± 0.027
GATTACATGC	1.01 ± 0.037
GATTACTTTG	0.9562 ± 0.0039
GATTAGAGGG	0.9877 ± 0.0081
GATTATTAGC	0.9999 ± 0.004
GATTATTAGT	1.012 ± 0.01
GATTATTCTT	1.03 ± 0.035
GATTATTGGA	1.01 ± 0.026
GATTATTTGG	0.986 ± 0.011
GATTCAAGTG	0.96 ± 0.022
GATTCAGGAC	1.04 ± 0.012
GATTCATTAT	0.988 ± 0.011
GATTCCTATC	0.996 ± 0.039
GATTCGAATC	1 ± 0.034
GATTCGATCT	0.993 ± 0.024
GATTCTATAG	0.988 ± 0.036

Sequence	switch fluorescence ratio
GATTGAAAGG	0.957 ± 0.0097
GATTGAATAA	0.997 ± 0.019
GATTGACCCT	1.048 ± 0.0092
GATTGACGGC	1 ± 0.045
GATTGACGTG	0.957 ± 0.08
GATTGAGCGG	1.01 ± 0.018
GATTGATTTA	1 ± 0.021
GATTGCAGTA	0.983 ± 0.036
GATTGCCGCG	1 ± 0.047
GATTGCCGTG	1.03 ± 0.024
GATTGCGGTC	1.03 ± 0.016
GATTGCTGGT	0.9513 ± 0.0046
GATTGGATCG	0.9904 ± 0.0051
GATTGGCGCG	1.006 ± 0.0031
GATTGGGCTC	1.02 ± 0.036
GATTGGGGCT	1.02 ± 0.039
GATTGGGTGT	1.03 ± 0.054
GATTGGTATT	0.995 ± 0.044
GATTGGTTCC	1.05 ± 0.036
GATTGTAGGT	1 ± 0.015
GATTGTGATG	0.9724 ± 0.0055
GATTGTGTG	0.998 ± 0.03
GATTTAATAG	0.9625 ± 0.0076
GATTTAATCC	0.974 ± 0.032
GATTTACTGG	1.04 ± 0.024

Sequence	switch fluorescence ratio
GATTTAGACG	0.945 ± 0.06
GATTTAGATT	1 ± 0.046
GATTTATATC	0.993 ± 0.028
GATTTCAGCT	0.997 ± 0.019
GATTTCATG	0.993 ± 0.019
GATTTCTCGT	0.9551 ± 0.0021
GATTTGACGG	0.983 ± 0.022
GATTTGATTT	0.991 ± 0.037
GATTTGCAGG	0.983 ± 0.033
GATTTGCATC	1.03 ± 0.025
GATTTGCTTT	0.98 ± 0.013
GATTTGGAGC	0.9911 ± 0.0076
GATTTGGAGT	0.985 ± 0.018
GATTTGGCTG	0.986 ± 0.019
GATTTGGGT	0.997 ± 0.051
GATTTGGTCA	0.9976 ± 0.0034
GATTTGGTCT	1.04 ± 0.035
GATTTGTAAA	0.99 ± 0.029
GATTTGTGAC	0.977 ± 0.052
GATTTGTGGG	0.994 ± 0.024
GATTTGTTAG	0.977 ± 0.022
GATTTTACGA	0.994 ± 0.052
GATTTTAGTA	1.01 ± 0.033
GATTTTCGTA	0.985 ± 0.025
GATTTTCGTC	0.996 ± 0.032

Sequence	switch fluorescence ratio
GATTTTGGGA	0.9815 ± 0.0068
GATTTTGTAA	1.012 ± 0.004
GATTTTGTGG	0.971 ± 0.02
GATTTTGTTC	1.03 ± 0.02
GCAAAAAAAG	0.96 ± 0.077
GCAAAGGGGT	0.996 ± 0.021
GCAAATGGAA	0.982 ± 0.042
GCAACGGCGG	1.01 ± 0.054
GCAACGGGAG	0.988 ± 0.035
GCAACTGATC	1.19 ± 0.031
GCAAGGCGGA	1.03 ± 0.0091
GCAATCGGAG	1.27 ± 0.025
GCAATGGTGG	1.04 ± 0.035
GCAATTGCCT	0.989 ± 0.029
GCACCACCGT	1.15 ± 0.014
GCACCATCCA	1.03 ± 0.013
GCACCTGGAT	1.01 ± 0.027
GCACCTGGGC	0.991 ± 0.039
GCACGAGCCC	1.316 ± 0.008
GCACGAGGGG	0.979 ± 0.047
GCACGGACAT	1.4 ± 0.031
GCACGGTACG	1 ± 0.031
GCACGGTCGG	1.009 ± 0.0021
GCACGTATTC	1.113 ± 0.0047
GCACGTGGTC	1.04 ± 0.019

Sequence	switch fluorescence ratio
GCACGTGTTC	1.119 ± 0.0096
GCACTAGACT	1.07 ± 0.029
GCACTCGGGA	1.03 ± 0.027
GCACTGGTAA	1.023 ± 0.0071
GCACTTGGTG	1.02 ± 0.024
GCACTTTAGC	1.03 ± 0.018
GCAGACCTAT	0.989 ± 0.058
GCAGACGTTC	1.012 ± 0.005
GCAGAGGGTC	0.9998 ± 0.0066
GCAGAGTGTT	1.02 ± 0.027
GCAGATTAGC	1.033 ± 0.0044
GCAGCAAAAG	1.029 ± 0.0029
GCAGCAATTG	3.03 ± 0.19
GCAGCACGCA	1.03 ± 0.032
GCAGCTGGTT	0.994 ± 0.026
GCAGCTTCGG	0.984 ± 0.014
GCAGGAAGAC	3.48 ± 0.81
GCAGGACGAC	2.38 ± 0.49
GCAGGAGCCT	1.01 ± 0.011
GCAGGATGGG	0.98 ± 0.019
GCAGGCCGAG	1.05 ± 0.037
GCAGGGGAAG	0.99 ± 0.019
GCAGGGGCTC	1 ± 0.027
GCAGGGGGTC	1 ± 0.021
GCAGGGTTCT	0.9721 ± 0.0021

Sequence	switch fluorescence ratio
GCAGGTTTGG	0.991 ± 0.033
GCAGTAGTGG	1.2 ± 0.33
GCAGTATCAC	1.05 ± 0.028
GCAGTATGGT	0.985 ± 0.016
GCAGTGCGCC	1.2 ± 0.05
GCAGTTAAGT	1 ± 0.037
GCAGTTAGGG	0.995 ± 0.079
GCAGTTGGTA	0.989 ± 0.02
GCAGTTGGTG	0.958 ± 0.043
GCAGTTTTGG	0.992 ± 0.015
GCATAAAACT	1.04 ± 0.014
GCATAAACGC	1.06 ± 0.044
GCATAAAGGA	0.9684 ± 0.0075
GCATAAGGTT	0.993 ± 0.031
GCATAGCGCC	1.04 ± 0.013
GCATAGGGCG	1.01 ± 0.018
GCATATCTAG	1.03 ± 0.041
GCATCAATTT	1.016 ± 0.0012
GCATCGGGGT	1 ± 0.032
GCATCGTAGA	1.07 ± 0.015
GCATCTACGG	1.02 ± 0.019
GCATCTCAGC	0.991 ± 0.038
GCATGAGCTG	0.981 ± 0.014
GCATGATGCG	0.994 ± 0.013
GCATGATGGC	1.03 ± 0.063
